Measured values taken from US20030138859A1, “Assay kits and methods for immune complex-mediate activation involving shed antigens” (BioCrystal, Ltd., priority 1999, published 2003).
Values belong to the molecule of their own block, whether it stands above or below them.

Assays:
[1] = biological target: FcγRI on type 1 or type 2 endothelial cells; test: cell-based or functional assay
[2] = biological target: murine FcγRI on murine cells (Met 129, B16F10, granulocytes, peritoneal macrophages, MH-S macrophages) (mouse) (UniProt P26151); test: cell-based or functional assay
Sequence of murine FcγRI on murine cells (Met 129, B16F10, granulocytes, peritoneal macrophages, MH-S macrophages) (mouse) (P26151 25-404): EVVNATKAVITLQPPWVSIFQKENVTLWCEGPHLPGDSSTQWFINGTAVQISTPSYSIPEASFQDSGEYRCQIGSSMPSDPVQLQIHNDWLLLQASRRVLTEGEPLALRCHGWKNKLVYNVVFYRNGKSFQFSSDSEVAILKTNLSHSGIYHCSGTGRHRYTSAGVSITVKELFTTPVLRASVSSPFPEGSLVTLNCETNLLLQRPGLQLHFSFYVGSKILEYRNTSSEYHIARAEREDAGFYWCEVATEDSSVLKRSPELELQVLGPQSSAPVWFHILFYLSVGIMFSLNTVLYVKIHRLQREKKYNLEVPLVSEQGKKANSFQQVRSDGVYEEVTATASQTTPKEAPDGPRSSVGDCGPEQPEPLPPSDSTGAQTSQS

[3] = system: mucin-secreting human tumor cell line T-47D; test: In vitro tumor cell invasion assay through matrix (Boyden chamber) with stromal cells; format: cell-based; conditions: anti-sTn IgG1 mAb
Excerpt: To illustrate this embodiment, granulocytes (polymorphonuclear cells) were harvested by positive selection from peripheral blood, and macrophages were harvested by peritoneal wash, from C3H-SCID beige mice in order to avoid contaminating mouse NK cells, natural Abs, or any immune recognition by mouse T or B lymphocytes. In this in vitro tumor cell invasion assay, used were mucin-secreting human tumor cell line T-47D, a Boyden chamber, and a commercially available basement membrane matrix preparation (“matrix”) which solidifies into a semisolid matrix. In this assay, tested was the ability of tumor cells (2×10^4 cells) to migrate through the matrix (layered into a 6.5 mm well insert containing a polycarbonate membrane having a 3.0 μm pore size) in the following conditions: matrix alone; matrix containing stromal cells (2×10^5 cells, granulocytes and macrophages combined); matrix in the presence of anti-shed tumor antigen antibody (anti-sTn mAb; IgG1; 0.06 μg); matrix containing stromal cells in the presence of anti-sTn mAb (0.06 μg); and matrix containing stromal cells in the presence of Fab fragments (0.06 μg) of the anti-sTn mAb. […] Invasion was measured by counting the number of tumor cells per well which migrated to the bottom of the chamber after 48 to 72 hours. […]

- VEGF production by type 1 endothelial cells (ELISA, 2 h) [1]: > 5 pg/mL
- IFN-γ secreted, macrophages + IC (ELISA) [2]: 5.3 pg/mL
- IFN-γ secreted, macrophages + tumor cells + IC (ELISA) [2]: 4 pg/mL
- IFN-γ secreted, macrophages + tumor cells + neutrophils + IC (ELISA) [2]: 4.1 pg/mL
- IL-1β secreted, macrophages + IC (ELISA) [2]: 2.5 pg/mL
- IL-1β secreted, macrophages + tumor cells + neutrophils + IC (ELISA) [2]: 22.8 pg/mL
- IL-4 secreted, macrophages + IC (ELISA) [2]: 1.5 pg/mL
- IL-4 secreted, macrophages + tumor cells + IC (ELISA) [2]: 1.3 pg/mL
- IL-4 secreted, macrophages + tumor cells + neutrophils + IC (ELISA) [2]: 0.6 pg/mL
- IL-6 secreted, macrophages + IC (ELISA) [2]: 104 pg/mL
- IL-6 secreted, macrophages + tumor cells + IC (ELISA) [2]: 400 pg/mL
Molecule: immune complexes comprising bovine submaxillary mucin and anti-sTn mAb (clone B72.3, IgG1)

Molecule: [N-]=[N+]=[N-] [azide, sodium azide]
- reduction in tumor cell migration compared to assay in absence of the substance ([3]; 0.001% per well): ~5 fold

Molecule: methoxysuccinyl-alanyl-alanyl-prolyl-valine-chloromethylketone [MAAPVC]
- reduction in tumor cell migration compared to assay in absence of the substance ([3]; 0.1 μg/well): ~5 fold
